Test results from patent US20200399369A1 (Sanofi, published 2020).

T1: Human CD3 (human)
T1 chain: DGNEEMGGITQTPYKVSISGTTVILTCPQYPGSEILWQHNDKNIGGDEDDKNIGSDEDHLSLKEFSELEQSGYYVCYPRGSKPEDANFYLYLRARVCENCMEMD

B1: CD38VH1/CD28sup x CD3mid_ENLQ DKTHT IgG4 FALA (other)
light 1: DIVMTQTPLSLSVTPGQPASISCKSSQSLVHENLQTYLSWYLQKPGQSPQSLIYKVSNRFSGVPDRFSGSGSGTDFTLKISRVEAEDVGVYYCGQGTQYPFTFGSGTKVEIKDKTHTDIQMTQSPSSLSASVGDRVTITCQASQNIYVWLNWYQQKPGKAPKLLIYKASNLHTGVPSRFSGSGSGTDFTLTISSLQPEDIATYYCQQGQTYPYTFGQGTKLEIKDKTHTRTVAAPSVFIFPPSDEQLKSGTASVVCLLNNFYPREAKVQWKVDNALQSGNSQESVTEQDSKDSTYSLSSTLTLSKADYEKHKVYACEVTHQGLSSPVTKSFNRGEC
heavy 1: QVQLVQSGAEVVKPGASVKVSCKASGYTFTSYYIHWVRQAPGQGLEWIGSIYPGNVNTNYAQKFQGRATLTVDTSISTAYMELSRLRSDDTAVYYCTRSHYGLDWNFDVWGKGTTVTVSSDKTHTQVQLVESGGGVVQPGRSLRLSCAASGFTFTKAWMHWVRQAPGKQLEWVAQIKDKSNSYATYYADSVKGRFTISRDDSKNTLYLQMNSLRAEDTAVYYCRGVYYALSPFDYWGQGTLVTVSSDKTHTASTKGPSVFPLAPCSRSTSESTAALGCLVKDYFPEPVTVSWNSGALTSGVHTFPAVLQSSGLYSLSSVVTVPSSSLGTKTYTCNVDHKPSNTKVDKRVESKYGPPCPPCPAPEAAGGPSVFLFPPKPKDTLMISRTPEVTCVVVDVSQEDPEVQFNWYVDGVEVHNAKTKPREEQFNSTYRVVSVLTVLHQDWLNGKEYKCKVSNKGLPSSIEKTISKAKGQPREPQVCTLPPSQEEMTKNQVSLSCAVKGFYPSDIAVEWESNGQPENNYKTTPPVLDSDGSFFLVSKLTVDKSRWQEGNVFSCSVMHEALHNHYTQKSLSLSLG
heavy 2: QVQLVQSGAEVVKPGASVKVSCKASGYTFTSYAMHWVKEAPGQRLEWIGYIYPGQGGTNYNQKFQGRATLTADTSASTAYMELSSLRSEDTAVYFCARTGGLRRAYFTYWGQGTLVTVSSASTKGPSVFPLAPCSRSTSESTAALGCLVKDYFPEPVTVSWNSGALTSGVHTFPAVLQSSGLYSLSSVVTVPSSSLGTKTYTCNVDHKPSNTKVDKRVESKYGPPCPPCPAPEAAGGPSVFLFPPKPKDTLMISRTPEVTCVVVDVSQEDPEVQFNWYVDGVEVHNAKTKPREEQFNSTYRVVSVLTVLHQDWLNGKEYKCKVSNKGLPSSIEKTISKAKGQPREPQVYTLPPCQEEMTKNQVSLWCLVKGFYPSDIAVEWESNGQPENNYKTTPPVLDSDGSFFLYSKLTVDKSRWQEGNVFSCSVMHEALHNHYTQKSLSLSLG
light 2: DIVLTQSPATLSLSPGERATISCRASQSVSSYGQGFMHWYQQKPGQPPRLLIYGASSRATGIPARFSGSGSGTDFTLTISPLEPEDFAVYYCQQNKEDPWTFGGGTKLEIKRTVAAPSVFIFPPSDEQLKSGTASVVCLLNNFYPREAKVQWKVDNALQSGNSQESVTEQDSKDSTYSLSSTLTLSKADYEKHKVYACEVTHQGLSSPVTKSFNRGEC
notes: Trispecific antibody; also called BP # 1
B2: CD38hyb6284/CD28sup x CD3mid_ENLQ DKTHT IgG4 FALA (other)
light 1: B1 light 1
heavy 1: B1 heavy 1
heavy 2: QVQLLQSGAELVRPGVSVKISCTGSGYSFTNYAVHWVKQSHVKSLEWIGVISPYYGDTTYNQKFTGKATMTVDKSSSTAYMELARLTSEDSAIYFCARRFEGFYYSMDYWGQGTSVTVSSASTKGPSVFPLAPCSRSTSESTAALGCLVKDYFPEPVTVSWNSGALTSGVHTFPAVLQSSGLYSLSSVVTVPSSSLGTKTYTCNVDHKPSNTKVDKRVESKYGPPCPPCPAPEAAGGPSVFLFPPKPKDTLMISRTPEVTCVVVDVSQEDPEVQFNWYVDGVEVHNAKTKPREEQFNSTYRVVSVLTVLHQDWLNGKEYKCKVSNKGLPSSIEKTISKAKGQPREPQVYTLPPCQEEMTKNQVSLWCLVKGFYPSDIAVEWESNGQPENNYKTTPPVLDSDGSFFLYSKLTVDKSRWQEGNVFSCSVMHEALHNHYTQKSLSLSLG
light 2: DVVMIQTPLSLPVSLGDQASISCRPSQSLVHSNGNTYLNWYLQRPGQSPKLLIYKVSKRFSGVPDRFSGSGSGTDFTLKISRVEAEDLGVYLCSQSTHVPLTFGSGTQLEIKRTVAAPSVFIFPPSDEQLKSGTASVVCLLNNFYPREAKVQWKVDNALQSGNSQESVTEQDSKDSTYSLSSTLTLSKADYEKHKVYACEVTHQGLSSPVTKSFNRGEC
notes: Trispecific antibody; also called BP # 7
B3: CD38hhy1195/CD28sup x CD3mid_ENLQ DKTHT IgG4 FALA (other)
light 1: B1 light 1
heavy 1: B1 heavy 1
heavy 2: QVQLVESGGGVVQPGRSLRLSCAASGFTFSSYGMYWVRQAPGKGLEWVAVIWYDGSNKYYADSVKGRFTISRDNSKNTLYLQMNSLRAEDTAVYHCARDPGLRYFDGGMDVWGQGTTVTVSSASTKGPSVFPLAPCSRSTSESTAALGCLVKDYFPEPVTVSWNSGALTSGVHTFPAVLQSSGLYSLSSVVTVPSSSLGTKTYTCNVDHKPSNTKVDKRVESKYGPPCPPCPAPEAAGGPSVFLFPPKPKDTLMISRTPEVTCVVVDVSQEDPEVQFNWYVDGVEVHNAKTKPREEQFNSTYRVVSVLTVLHQDWLNGKEYKCKVSNKGLPSSIEKTISKAKGQPREPQVYTLPPCQEEMTKNQVSLWCLVKGFYPSDIAVEWESNGQPENNYKTTPPVLDSDGSFFLYSKLTVDKSRWQEGNVFSCSVMHEALHNHYTQKSLSLSLG
light 2: DIQLTQSPSFLSASVGDRVTITCRASQGISSYLAWYQQKPGKAPKLLIFAASTLHSGVPSRFSGSGSGTEFTLTISSLQPEDFATYYCQQLNSFPYTFGQGTKLEIKRTVAAPSVFIFPPSDEQLKSGTASVVCLLNNFYPREAKVQWKVDNALQSGNSQESVTEQDSKDSTYSLSSTLTLSKADYEKHKVYACEVTHQGLSSPVTKSFNRGEC
notes: Trispecific antibody; also called BP # 8
B4: CD38hhy1370/CD28sup x CD3mid_ENLQ DKTHT IgG4 FALA (other)
light 1: B1 light 1
heavy 1: B1 heavy 1
heavy 2: QVQLVESGGGVVQPGRSLRLSCAASGFTFSSYGMHWVRQAPGKGLEWVAVIWYDGSNKYYADSVKGRFTISGDNSKNTLYLQMNSLRAEDTAVYYCARMFRGAFDYWGQGTLVTVSSASTKGPSVFPLAPCSRSTSESTAALGCLVKDYFPEPVTVSWNSGALTSGVHTFPAVLQSSGLYSLSSVVTVPSSSLGTKTYTCNVDHKPSNTKVDKRVESKYGPPCPPCPAPEAAGGPSVFLFPPKPKDTLMISRTPEVTCVVVDVSQEDPEVQFNWYVDGVEVHNAKTKPREEQFNSTYRVVSVLTVLHQDWLNGKEYKCKVSNKGLPSSIEKTISKAKGQPREPQVYTLPPCQEEMTKNQVSLWCLVKGFYPSDIAVEWESNGQPENNYKTTPPVLDSDGSFFLYSKLTVDKSRWQEGNVFSCSVMHEALHNHYTQKSLSLSLG
light 2: AIQMTQSPSSLSASVGDRVTITCRASQGIRNDLGWYQQKPGKAPKLLIYAASSLQSGVPSRFSGSGSGTDFTLTISGLQPEDSATYYCLQDYIYYPTFGQGTKVEIKRTVAAPSVFIFPPSDEQLKSGTASVVCLLNNFYPREAKVQWKVDNALQSGNSQESVTEQDSKDSTYSLSSTLTLSKADYEKHKVYACEVTHQGLSSPVTKSFNRGEC
notes: Trispecific antibody; also called BP # 9
B5: CD38hhy992/CD28sup x CD3mid_ENLQ DKTHT IgG4 FALA (other)
light 1: B1 light 1
heavy 1: B1 heavy 1
heavy 2: QVQLVQSGAEVKKPGASVKVSCKVSGYTLTEFSIHWVRQAPGQGLEWMGGFDPEDGETIYAQKFQGRVIMTEDTSTDTAYMEMNSLRSEDTAIYYCTTGRFFDWFWGQGTLVTVSSASTKGPSVFPLAPCSRSTSESTAALGCLVKDYFPEPVTVSWNSGALTSGVHTFPAVLQSSGLYSLSSVVTVPSSSLGTKTYTCNVDHKPSNTKVDKRVESKYGPPCPPCPAPEAAGGPSVFLFPPKPKDTLMISRTPEVTCVVVDVSQEDPEVQFNWYVDGVEVHNAKTKPREEQFNSTYRVVSVLTVLHQDWLNGKEYKCKVSNKGLPSSIEKTISKAKGQPREPQVYTLPPCQEEMTKNQVSLWCLVKGFYPSDIAVEWESNGQPENNYKTTPPVLDSDGSFFLYSKLTVDKSRWQEGNVFSCSVMHEALHNHYTQKSLSLSLG
light 2: EIILTQSPAILSLSPGERATLSCRASQSVISRFLSWYQVKPGLAPRLLIYGASTRATGIPVRFSGSGSGTDFSLTISSLQPEDCAVYYCQQDSNLPITFGQGTRLEIKRTVAAPSVFIFPPSDEQLKSGTASVVCLLNNFYPREAKVQWKVDNALQSGNSQESVTEQDSKDSTYSLSSTLTLSKADYEKHKVYACEVTHQGLSSPVTKSFNRGEC
notes: Trispecific antibody; also called BP # 5′

What follows are binders tested against T2, human CD38 on tumor cell lines NCI-H929 (CD38+/CD28+) and OCI-LY19 (CD38+/CD28-) (human, UniProt P28907 1-300) (assay: cell-based or functional assay).

Binder	EC50 of in vitro killing of NCI-H929 (CD38+/CD28+) cells, With Dara [nM]	EC50 of in vitro killing of NCI-H929 (CD38+/CD28+) cells, With human IgG1 [nM]
B1	0.0298	0.00106
B2	0.0336	0.00437
B3	0.0893	0.017
B4	0.255	0.0096
B5	0.126	0.0134

Molecular target: T2, human CD38 on tumor cell lines NCI-H929 …
Experiment: cell-based or functional assay
Remark: another data set of the same source

Binder	EC50 of in vitro killing of OCI-LY19 (CD38+/CD28-) cells, With Dara [nM]	EC50 of in vitro killing of OCI-LY19 (CD38+/CD28-) cells, With human IgG1 [nM]
B1	0.136	0.00566
B2	0.081	0.0421
B3	0.715	0.296
B4	0.21	0.0585
B5	0.133	0.0573

These binders were tested against T3, Human CD28 (human, UniProt P10747 19-152, limits assumed) (assay: ELISA, antigen-coated plate).
T3 construct: also called hCD28
Procedure: (§1) Binding affinities to each target antigen by the CD38/CD28×CD3 T cell engagers were measured by ELISA. Briefly, each antigen was used to coat the 96-well Immuno Plate (Thermo Fisher Scientific) overnight at 4° C. using 200 ng/well in PBS (pH7.4) of each antigen. The coated plate was blocked using 5% skim milk+2% BSA in PBS for one hour at RT, followed by washing with PBS+0.25% Tween 20 three times (Aqua Max 400, Molecular Devices). Serial dilution of antibodies (trispecific and control Abs) were prepared and added onto the ELISA plates (100 μl/well in duplicate), incubated at room temperature (RT) for one hour, followed by washing 5 times with PBS+0.25% Tween 20. […] The reaction was terminated by adding 50 μl 1M H₂SO₄, and OD450 was measured using SpectraMax M5 (Molecular Devices) and analyzed using SoftMax Pro6.3 software (Molecular Devices). The final data was transferred to GraphPad Prism software (GraphPad Software, CA, USA), and plotted. EC50 was calculated using the same software.
(§2) The binding affinities of selected CD38/CD28sup×CD3mid_ENLQ DKTHT IgG4 FALA trispecific antibodies with alternative anti-CD38 binding domains for human CD3, human CD28, human CD38 and cynomolgus monkey CD38 were then determined by ELISA as described above.

EC50 [nM]	Binder
0.725	B1
0.711	B2
0.697	B3
1.26	B4
0.809	B5

These binders were tested against T4, human CD38 (human, UniProt P28907 43-300, limits assumed) (assay: ELISA, antigen-coated plate).
T4 construct: also called hCD38; huCD38
Procedure: as §1, §2

EC50 [nM]	Binder
7.24	B1
0.253	B2
103	B3
0.587	B4
0.229	B5

Each binder was assayed against T5, cynomolgus monkey CD38 (cynomolgus monkey, UniProt Q5VAN0 44-301, limits assumed) (assay: ELISA, antigen-coated plate).
T5 construct: also called Cyno CD38; cynoCD38
Procedure: as §1, §2

EC50 [nM]	Binder
2.13	B1
0.29	B2
37.7	B3
0.553	B4
0.912	B5

Molecular target: T1, Human CD3
Experiment: ELISA, antigen-coated plate
Procedure: as §1, §2

EC50 [nM]	Binder
6.74	B1
8.22	B2
7.63	B3
25	B4
33.6	B5

These binders were tested against T6, Human CD38-His (human, UniProt P28907 43-300, limits assumed) (assay: SPR (BIACORE 3000), capture format, 1:1 Langmuir model).
T6 construct: Bought antigen; also called human CD38 (SPR antigen); not shown: His tag

Kd [nM]	koff [s⁻¹]	kon [M⁻¹ s⁻¹]	Binder
2.85	0.00158	555000	B1
0.652	0.000512	785000	B2
14.2	0.018	1.27e+06	B3
0.876	0.000329	376000	B4
0.129	0.000175	1.35e+06	B5
